{"source": "patent US20230346969A1", "about": "“INTERMEDIATE FOR PREPARING ANTIBODY-DRUG CONJUGATE (ADC), PREPARATION METHOD THEREFOR, AND USE THEREOF” (priority 2020, published 2023)", "key": {"[1]": {"target": "Human trophoblast cell surface antigen 2 (Trop-2), on tumor cell lines (human) (UniProt P09758)", "sequence (P09758 27-323)": "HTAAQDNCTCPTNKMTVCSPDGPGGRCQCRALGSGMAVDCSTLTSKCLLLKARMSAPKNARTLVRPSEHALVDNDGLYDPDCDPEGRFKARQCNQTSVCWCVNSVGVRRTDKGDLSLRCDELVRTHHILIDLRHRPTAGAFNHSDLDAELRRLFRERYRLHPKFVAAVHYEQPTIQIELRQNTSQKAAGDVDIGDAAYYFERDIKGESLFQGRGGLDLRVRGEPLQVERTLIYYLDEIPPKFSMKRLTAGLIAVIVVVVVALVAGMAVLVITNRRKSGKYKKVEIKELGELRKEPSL", "assay": "flow cytometry background, taken as human IgG1 isotype control; cell line printed 'SRM-K9-231' (probably MDA-MB-231)"}, "[2]": {"target": "Human trophoblast cell surface antigen 2 (Trop-2), on tumor cell lines (human) (UniProt P09758)", "assay": "flow cytometry background, taken as human IgG1 isotype control; cell line printed 'MOA-413-468' (probably MDA-MB-468)"}, "[3]": {"target": "Human trophoblast cell surface antigen 2 (Trop-2), on tumor cell lines (human) (UniProt P09758)", "assay": "flow cytometry background, taken as human IgG1 isotype control; cell line printed 'SK-WSS-7' (probably SK-MES-1)"}, "[4]": {"target": "Human trophoblast cell surface antigen 2 (Trop-2), on tumor cell lines (human) (UniProt P09758)", "assay": "flow cytometry background, taken as human IgG1 isotype control; cell line printed 'MCP-83-21' (probably MDA-MB-231)"}, "[5]": {"target": "Human trophoblast cell surface antigen 2 (Trop-2), on tumor cell lines (human) (UniProt P09758)", "assay": "flow cytometry background, taken as human IgG1 isotype control; cell line printed 'Cxoo-1' (probably Capan-1)"}, "[6]": {"target": "Human trophoblast cell surface antigen 2 (Trop-2), on tumor cell lines (human) (UniProt P09758)", "assay": "flow cytometry background, taken as human IgG1 isotype control; cell line printed 'SK-M55-1' (probably SK-MES-1)"}, "[7]": {"target": "Human trophoblast cell surface antigen 2 (Trop-2), on tumor cell lines (human) (UniProt P09758)", "assay": "flow cytometry background, taken as human IgG1 isotype control; cell line printed 'CCAO205' (probably COLO205)"}, "[8]": {"target": "Human trophoblast cell surface antigen 2 (Trop-2), on tumor cell lines (human) (UniProt P09758)", "assay": "flow cytometry background, taken as human IgG1 isotype control; cell line printed 'SKERS' (probably SKBR3)"}, "[9]": {"target": "Human trophoblast cell surface antigen 2 (Trop-2), on tumor cell lines (human) (UniProt P09758)", "assay": "flow cytometry background, taken as human IgG1 isotype control; cell line printed 'SRM-C-21H' (probably SCLC-21H)"}, "[10]": {"target": "Human trophoblast cell surface antigen 2 (Trop-2), on tumor cell lines (human) (UniProt P09758)", "assay": "flow cytometry background, taken as human IgG1 isotype control; cell line printed 'RMCA' (pancreas; probably BXPC-3)"}, "[11]": {"target": "Human trophoblast cell surface antigen 2 (Trop-2), on tumor cell lines (human) (UniProt P09758)", "assay": "flow cytometry background, taken as human IgG1 isotype control; cell line printed 'NCl-H1828' (probably NCI-H1688, called Trop-2-negative in paragraph 230)"}, "[12]": {"target": "Human trophoblast cell surface antigen 2 (Trop-2), on tumor cell lines (human) (UniProt P09758)", "assay": "flow cytometry background, taken as human IgG1 isotype control; cell line printed 'HCl-11685' (probably NCI-H1688, called Trop-2-negative in paragraph 230)"}, "[13]": {"target": "Human trophoblast cell surface antigen 2 (Trop-2), on tumor cell lines (human) (UniProt P09758)", "assay": "flow cytometry background, taken as human IgG1 isotype control; cell line printed 'ECLC 214' (probably SCLC-21H)"}, "[14]": {"target": "Human trophoblast cell surface antigen 2 (Trop-2), on tumor cell lines (human) (UniProt P09758)", "assay": "flow cytometry background, taken as human IgG1 isotype control; cell line printed 'HOC2401' (probably NCIH2452)"}, "[15]": {"target": "Human trophoblast cell surface antigen 2 (Trop-2), on tumor cell lines (human) (UniProt P09758)", "assay": "flow cytometry background, taken as human IgG1 isotype control; cell line printed '3128' (probably HT29)"}, "[16]": {"target": "Human trophoblast cell surface antigen 2 (Trop-2), on tumor cell lines (human) (UniProt P09758)", "assay": "flow cytometry background, taken as human IgG1 isotype control; cell line printed 'SRM-M9-409' (probably MDA-MB-468)"}, "[17]": {"target": "Human trophoblast cell surface antigen 2 (Trop-2), on tumor cell lines (human) (UniProt P09758)", "assay": "flow cytometry background, taken as human IgG1 isotype control; cell line printed 'HOC1906' (probably HCC1806)"}, "[18]": {"target": "Human trophoblast cell surface antigen 2 (Trop-2), on tumor cell lines (human) (UniProt P09758)", "assay": "flow cytometry background, taken as human IgG1 isotype control; cell line printed 'CPAC-1' (probably CFPAC-1)"}, "[19]": {"target": "Human trophoblast cell surface antigen 2 (Trop-2), on tumor cell lines (human) (UniProt P09758)", "assay": "flow cytometry background, taken as human IgG1 isotype control; cell line printed 'BKFC-Y' (probably BXPC-3)"}, "[20]": {"target": "Human trophoblast cell surface antigen 2 (Trop-2), on tumor cell lines (human) (UniProt P09758)", "assay": "flow cytometry background, taken as human IgG1 isotype control; cell line printed 'HCCHOI' (probably HCC1806)"}, "[21]": {"target": "Human trophoblast cell surface antigen 2 (Trop-2), on tumor cell lines (human) (UniProt P09758)", "assay": "flow cytometry background, taken as human IgG1 isotype control; cell line printed 'H123' (probably HT29)"}, "[22]": {"target": "Human trophoblast cell surface antigen 2 (Trop-2), on tumor cell lines (human) (UniProt P09758)", "assay": "flow cytometry background, taken as human IgG1 isotype control; cell line CFPAC-1"}, "[23]": {"target": "Human trophoblast cell surface antigen 2 (Trop-2), on tumor cell lines (human) (UniProt P09758)", "assay": "flow cytometry background, taken as human IgG1 isotype control; cell line printed 'Cepes-3' (probably Capan-1)"}, "[24]": {"target": "Human trophoblast cell surface antigen 2 (Trop-2), on tumor cell lines (human) (UniProt P09758)", "assay": "flow cytometry background, taken as human IgG1 isotype control; cell line printed 'COXC28' (probably COLO205)"}, "[25]": {"target": "Human trophoblast cell surface antigen 2 (Trop-2), on tumor cell lines (human) (UniProt P09758)", "assay": "flow cytometry background, taken as human IgG1 isotype control; cell line printed 'SK8RS' (probably SKBR3)"}, "[26]": {"target": "Human trophoblast cell surface antigen 2 (Trop-2), on tumor cell lines (human) (UniProt P09758)", "assay": "flow cytometry, 5 ug/mL hRS7 + PE anti-human IgG; cell line printed 'CPAC-1' (pancreas; probably CFPAC-1)"}, "[27]": {"target": "Human trophoblast cell surface antigen 2 (Trop-2), on tumor cell lines (human) (UniProt P09758)", "assay": "flow cytometry, 5 ug/mL hRS7 + PE anti-human IgG; cell line CFPAC-1 (pancreas)"}, "[28]": {"assay": "Preparation of control ADC via hydrophobic VC linker (behaviour in solution)", "format": "physicochemical", "details": "hydrophobic VC linker with PTX payload", "protocol": "A Troptargeted hRS7-VC-PTX molecule was prepared via a hydrophobic VC linker (FIG. 1a)."}}, "data": [{"substance": "human IgG1 isotype control (antibody)", "values": [{"measurement": "MFI (background)", "setting": "[1]", "result": 1250, "unit": "MFI"}, {"measurement": "MFI (background)", "setting": "[2]", "result": 678, "unit": "MFI"}, {"measurement": "MFI (background)", "setting": "[3]", "result": 691, "unit": "MFI"}, {"measurement": "MFI (background)", "setting": "[4]", "result": 1250, "unit": "MFI"}, {"measurement": "MFI (background)", "setting": "[5]", "result": 3650, "unit": "MFI"}, {"measurement": "MFI (background)", "setting": "[6]", "result": 801, "unit": "MFI"}, {"measurement": "MFI (background)", "setting": "[7]", "result": 1530, "unit": "MFI"}, {"measurement": "MFI (background)", "setting": "[8]", "result": 1850, "unit": "MFI"}, {"measurement": "MFI (background)", "setting": "[9]", "result": 1220, "unit": "MFI"}, {"measurement": "MFI (background)", "setting": "[10]", "result": 1080, "unit": "MFI"}, {"measurement": "MFI (background)", "setting": "[11]", "result": 480, "unit": "MFI"}, {"measurement": "MFI (background)", "setting": "[12]", "result": 868, "unit": "MFI"}, {"measurement": "MFI (background)", "setting": "[13]", "result": 1230, "unit": "MFI"}, {"measurement": "MFI (background)", "setting": "[14]", "result": 1580, "unit": "MFI"}, {"measurement": "MFI (background)", "setting": "[15]", "result": 866, "unit": "MFI"}, {"measurement": "MFI (background)", "setting": "[16]", "result": 378, "unit": "MFI"}, {"measurement": "MFI (background)", "setting": "[17]", "result": 192, "unit": "MFI"}, {"measurement": "MFI (background)", "setting": "[18]", "result": 1580, "unit": "MFI"}, {"measurement": "MFI (background)", "setting": "[19]", "result": 1670, "unit": "MFI"}, {"measurement": "MFI (background)", "setting": "[20]", "result": 692, "unit": "MFI"}, {"measurement": "MFI (background)", "setting": "[21]", "result": 894, "unit": "MFI"}, {"measurement": "MFI (background)", "setting": "[22]", "result": 1580, "unit": "MFI"}, {"measurement": "MFI (background)", "setting": "[23]", "result": 3580, "unit": "MFI"}, {"measurement": "MFI (background)", "setting": "[24]", "result": 811, "unit": "MFI"}, {"measurement": "MFI (background)", "setting": "[25]", "result": 1830, "unit": "MFI"}]}, {"substance": "Humanized Trop-2 antibody hRS7", "values": [{"measurement": "MFI", "setting": "[26]", "result": 3840, "unit": "MFI"}, {"measurement": "MFI", "setting": "[27]", "result": 35400, "unit": "MFI"}]}, {"substance": "hRS7-VC-PTX", "values": [{"measurement": "behaviour in solution during the preparation process", "setting": "[28]", "result": "completely precipitated out of solution"}]}]}
